We go through eight molecules from US20160039895A1 (published 2016).

Sequences and labels used below:
B1: scVEGFrgd-7I (designed binder)
chain: EVVKAMDVYQRSYCHPIETLVDIFQEYPDEIEYIFKPSCVPLMRCGGCCNDAGLECVPTEESNITMQIMRIKPHQGQHIGEMSFLQHNKCECRPKKDGSTSGSGKSSEGKGEVVKFMDVYQRSYCHPIETLVDIFQEYPDEIEYAFKPSCVPLMRCGGCCNDEGLECVPTEESNITMQIMRPSVRRGDSPASHIGEMSFLQHNKCECRPKKDTR
notes: Soluble protein from P. pastoris with C-terminal hexahistidine tag, with or without N-terminal FLAG tag; also called scVEGF-7I
B2: scVEGFrgd-7H (designed binder)
chain: EVVKAMDVYQRSYCHPIETLVDIFQEYPDEIEYIFKPSCVPLMRCGGCCNDAGLECVPTEESNITMQIMRIKPHQGQHIGEMSFLQHNKCECRPKKDGSTSGSGKSSEGKGEVVKFMDVYQRSYCHPIETLVDIFQEYPDEIEYAFKPSCVPLMRCGGCCNDEGLECVPTEESNITMQIMRPGGRGDSAYHIGEMSFLQHNKCECRPKKDTR
notes: Soluble protein from P. pastoris with C-terminal hexahistidine tag, with or without N-terminal FLAG tag; also called scVEGF-7H
B3: scVEGFrgd-7P (designed binder)
chain: B2 chain with G183A, G184S, A189P, Y190P
notes: Soluble protein from P. pastoris with C-terminal hexahistidine tag, with or without N-terminal FLAG tag; also called scVEGF-7P
B4: scVEGF-mA (designed binder)
chain: EVAKAMDVYQKSYCHPIETLVDILQEYPDEIGYIFKPSCVPLMRCGGCCNDAGLECVPTEESNITMQIMRIKPYQGQHIGEMSFLQHNKCECRPKKDGSTSGSGKSSEGKGEVVKFMDVYQRSYCHPIETLVDIFQEYPDKIEYAFKPSCVPLMRCGGCCNNEGLECVPTEESNITMQITRAKPHQGQHIGEMSFLQHNKCECRPKKD
notes: Soluble protein from P. pastoris with C-terminal hexahistidine tag, with or without N-terminal FLAG tag (tags not included in the parts); also called scVEGFmut-A
B5: scVEGF-mJ (designed binder)
chain: B4 chain with V2I, A3V, M6R, K11R, G32E, Q77H, K141E, T180M, I190T
notes: Soluble protein with C-terminal hexahistidine tag, with or without N-terminal FLAG tag (tags not included in the parts); also called scVEGFmut-J
B6: scVEGF-mE (designed binder)
chain: B4 chain with A3V, K11R, D51G, Y74H, Q75R, K115R, D140N, K141E, T180M
notes: Soluble protein with C-terminal hexahistidine tag, with or without N-terminal FLAG tag (tags not included in the parts); also called scVEGFmut-E
B7: scVEGFmut (designed binder)
chain: YVEVVKAMDVYQRSYCHPIETLVDIFQEYPDEIEYIFKPSCVPLMRCGGCCNDAGLECVPTEESNITMQIMRIKPHQGQHIGEMSFLQHNKCECRPKKDGSTSGSGKSSEGKGEVVKFMDVYQRSYCHPIETLVDIFQEYPDEIEYAFKPSCVPLMRCGGCCNDEGLECVPTEESNITMQIMRAKPHQGQHIGEMSFLQHNKCECRPKKDTR
notes: scVEGF with chain 1 F17A, E64A and chain 2 I46A, I83A (VEGF121 numbering); Soluble protein from P. pastoris with C-terminal hexahistidine tag, with or without N-terminal FLAG tag
B8: scVEGFrgd-7B (designed binder)
chain: B2 chain with G183H, G184D, S188A, A189G, Y190V
notes: Soluble protein from P. pastoris with C-terminal hexahistidine tag, with or without N-terminal FLAG tag

Substitutions are numbered along the chain they refer to. Names may count otherwise.

Chain of VEGFR2 and αvβ3 integrin, both expressed on SVR angiosarcoma cells (murine cell line) (murine) (P35918 20-1345, chain 1 of 3): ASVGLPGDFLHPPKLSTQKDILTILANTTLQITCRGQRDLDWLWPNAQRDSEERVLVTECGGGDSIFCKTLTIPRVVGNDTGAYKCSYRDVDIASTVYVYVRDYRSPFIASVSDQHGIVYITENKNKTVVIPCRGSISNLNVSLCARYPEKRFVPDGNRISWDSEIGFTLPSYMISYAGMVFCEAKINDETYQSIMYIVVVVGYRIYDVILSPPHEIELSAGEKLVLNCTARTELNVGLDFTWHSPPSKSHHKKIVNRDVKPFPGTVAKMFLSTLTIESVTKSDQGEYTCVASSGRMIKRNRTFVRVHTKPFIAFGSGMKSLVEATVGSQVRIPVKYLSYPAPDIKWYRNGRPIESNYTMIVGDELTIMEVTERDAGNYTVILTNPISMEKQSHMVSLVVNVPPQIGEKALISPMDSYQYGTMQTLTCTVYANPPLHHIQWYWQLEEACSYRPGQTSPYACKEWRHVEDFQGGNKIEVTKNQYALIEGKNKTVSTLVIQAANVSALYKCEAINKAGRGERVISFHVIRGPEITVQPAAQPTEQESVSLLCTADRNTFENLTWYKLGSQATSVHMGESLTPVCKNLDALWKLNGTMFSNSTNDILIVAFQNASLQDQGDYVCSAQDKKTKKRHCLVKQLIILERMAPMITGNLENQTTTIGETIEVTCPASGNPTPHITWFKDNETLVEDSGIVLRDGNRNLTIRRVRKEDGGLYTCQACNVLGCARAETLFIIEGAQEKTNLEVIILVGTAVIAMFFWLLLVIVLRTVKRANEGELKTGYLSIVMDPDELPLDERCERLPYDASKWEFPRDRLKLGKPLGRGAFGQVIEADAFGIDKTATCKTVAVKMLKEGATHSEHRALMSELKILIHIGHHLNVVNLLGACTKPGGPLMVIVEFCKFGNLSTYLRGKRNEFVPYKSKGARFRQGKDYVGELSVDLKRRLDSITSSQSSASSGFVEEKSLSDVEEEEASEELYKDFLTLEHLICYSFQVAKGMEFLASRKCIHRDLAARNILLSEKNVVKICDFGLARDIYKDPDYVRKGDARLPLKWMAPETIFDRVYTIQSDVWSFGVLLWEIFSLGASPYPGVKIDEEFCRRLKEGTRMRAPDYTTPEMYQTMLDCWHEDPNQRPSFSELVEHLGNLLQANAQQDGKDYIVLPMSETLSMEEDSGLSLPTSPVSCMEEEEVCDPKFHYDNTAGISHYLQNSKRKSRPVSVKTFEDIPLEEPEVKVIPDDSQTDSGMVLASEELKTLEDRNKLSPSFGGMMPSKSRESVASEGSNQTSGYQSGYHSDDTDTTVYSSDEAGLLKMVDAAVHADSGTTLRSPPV
Chain of VEGFR2 and αvβ3 integrin, both expressed on SVR angiosarcoma cells (murine cell line) (murine) (P43406 31-1044, chain 2 of 3, further chain): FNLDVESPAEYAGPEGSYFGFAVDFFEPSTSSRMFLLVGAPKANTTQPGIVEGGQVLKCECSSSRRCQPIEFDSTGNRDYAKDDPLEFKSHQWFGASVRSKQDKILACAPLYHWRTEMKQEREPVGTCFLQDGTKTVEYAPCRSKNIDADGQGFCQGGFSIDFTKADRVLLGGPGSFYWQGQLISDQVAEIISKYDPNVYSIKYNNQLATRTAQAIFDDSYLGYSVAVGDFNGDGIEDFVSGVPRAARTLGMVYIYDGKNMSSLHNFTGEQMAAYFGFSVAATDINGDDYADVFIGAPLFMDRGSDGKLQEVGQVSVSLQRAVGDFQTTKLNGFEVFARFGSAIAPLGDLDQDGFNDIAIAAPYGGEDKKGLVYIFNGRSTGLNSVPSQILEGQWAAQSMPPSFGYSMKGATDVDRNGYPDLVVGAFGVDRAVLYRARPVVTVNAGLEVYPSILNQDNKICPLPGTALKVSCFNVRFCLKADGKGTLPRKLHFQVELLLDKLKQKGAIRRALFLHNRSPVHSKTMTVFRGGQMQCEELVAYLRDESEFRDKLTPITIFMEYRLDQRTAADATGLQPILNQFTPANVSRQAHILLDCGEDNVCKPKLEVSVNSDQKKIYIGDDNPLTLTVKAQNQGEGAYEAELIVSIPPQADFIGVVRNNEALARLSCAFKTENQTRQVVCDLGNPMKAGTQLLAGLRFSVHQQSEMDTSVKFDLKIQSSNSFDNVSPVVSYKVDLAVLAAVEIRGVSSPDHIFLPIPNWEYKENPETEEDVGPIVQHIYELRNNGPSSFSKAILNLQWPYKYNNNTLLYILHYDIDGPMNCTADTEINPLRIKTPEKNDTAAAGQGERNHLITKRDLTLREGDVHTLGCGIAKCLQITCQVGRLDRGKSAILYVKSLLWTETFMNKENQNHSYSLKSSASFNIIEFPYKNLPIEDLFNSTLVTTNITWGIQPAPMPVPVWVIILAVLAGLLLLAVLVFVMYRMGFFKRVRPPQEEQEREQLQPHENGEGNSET
Chain of VEGFR2 and αvβ3 integrin, both expressed on SVR angiosarcoma cells (murine cell line) (murine) (O54890 26-787, chain 3 of 3, further chain): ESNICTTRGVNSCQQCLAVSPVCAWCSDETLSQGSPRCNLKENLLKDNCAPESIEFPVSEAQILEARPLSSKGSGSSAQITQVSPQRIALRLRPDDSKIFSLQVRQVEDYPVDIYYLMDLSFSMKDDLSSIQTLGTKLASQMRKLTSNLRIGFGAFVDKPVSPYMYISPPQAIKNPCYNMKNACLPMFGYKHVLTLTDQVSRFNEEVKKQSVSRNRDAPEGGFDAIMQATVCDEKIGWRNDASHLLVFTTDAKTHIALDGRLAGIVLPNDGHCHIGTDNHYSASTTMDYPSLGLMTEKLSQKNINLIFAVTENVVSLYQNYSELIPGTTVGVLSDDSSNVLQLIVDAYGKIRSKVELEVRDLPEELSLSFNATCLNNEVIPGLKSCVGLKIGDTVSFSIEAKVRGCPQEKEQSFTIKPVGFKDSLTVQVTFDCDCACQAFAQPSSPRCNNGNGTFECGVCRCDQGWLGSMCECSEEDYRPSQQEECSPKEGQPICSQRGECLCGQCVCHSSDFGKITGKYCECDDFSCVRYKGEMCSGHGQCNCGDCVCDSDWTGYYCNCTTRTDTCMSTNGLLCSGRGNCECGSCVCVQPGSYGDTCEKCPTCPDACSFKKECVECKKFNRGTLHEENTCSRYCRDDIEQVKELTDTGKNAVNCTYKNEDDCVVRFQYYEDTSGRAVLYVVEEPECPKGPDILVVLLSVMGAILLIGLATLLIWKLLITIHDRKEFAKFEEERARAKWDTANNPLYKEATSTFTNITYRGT
T8 sequence (P35968 20-764): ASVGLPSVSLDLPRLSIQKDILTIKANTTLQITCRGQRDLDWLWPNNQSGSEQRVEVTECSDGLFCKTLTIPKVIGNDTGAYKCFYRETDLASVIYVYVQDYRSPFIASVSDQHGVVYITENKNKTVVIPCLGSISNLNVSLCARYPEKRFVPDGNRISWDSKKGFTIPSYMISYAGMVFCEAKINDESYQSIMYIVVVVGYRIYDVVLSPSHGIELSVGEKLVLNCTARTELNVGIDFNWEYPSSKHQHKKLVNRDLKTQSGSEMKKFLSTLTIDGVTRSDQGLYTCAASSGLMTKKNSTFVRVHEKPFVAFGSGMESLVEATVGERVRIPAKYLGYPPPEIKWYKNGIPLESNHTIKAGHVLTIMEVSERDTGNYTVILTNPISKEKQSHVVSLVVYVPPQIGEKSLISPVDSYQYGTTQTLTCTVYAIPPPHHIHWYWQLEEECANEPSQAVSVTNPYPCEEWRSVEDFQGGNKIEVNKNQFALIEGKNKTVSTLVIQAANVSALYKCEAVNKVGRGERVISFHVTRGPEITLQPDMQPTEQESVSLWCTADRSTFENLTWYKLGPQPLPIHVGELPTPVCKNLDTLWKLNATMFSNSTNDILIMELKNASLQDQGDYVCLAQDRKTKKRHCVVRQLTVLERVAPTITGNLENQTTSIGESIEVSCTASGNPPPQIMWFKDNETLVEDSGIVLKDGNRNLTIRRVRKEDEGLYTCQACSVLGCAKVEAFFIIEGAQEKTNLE

The target in one assay is VEGFR2 and αvβ3 integrin, both expressed on human umbilical vein endothelial cells (HUVEC) (human) (UniProt P35968). In words: cell-based or functional assay.
Take B1: the inhibition of VEGF-induced autophosphorylation of VEGFR-2 in HUVEC in the presence of vitronectin came out at 80%.

The next assay deals with T1, human αvβ3 integrin on cells (human, UniProt P06756 31-1048; P05106 27-788). Briefly: cell-based or functional assay.
For B2, the “IC50 of inhibition of vitronectin-mediated adhesion of HUVEC cells” value (“IC50 of inhibition … of HUVEC cells” below) is below 10 nM.
For the molecule B3, the “IC50 of inhibition … of HUVEC cells” value was below 10 nM.
Regarding B1, the “IC50 of inhibition … of HUVEC cells” value was below 10 nM.

For a further assay, the target named is T2, porcine αvβ3 integrin on PAE cells (porcine, UniProt A0A5K1V6L8 31-1052; A0A8D0RDV2 33-793).
T2 construct: whole, on cells
In words: flow cytometry on PAE cells. (In general: Flow cytometry measures light scatter and fluorescence of single cells or particles in a stream.)
Turning to B4, the binding result is given as “no binding (tested: 1 µM)”.
For B5, the binding result was “no binding (tested: 1 µM)”.
As to B6, the binding result is on record as “no binding (tested: 1 µM)”.
On to B7, for which the binding result is “no binding (tested: 1 µM)”.

A further assay has as its target T3, α5β1 integrin on wild-type K562 cells (UniProt P08648 42-1049; P05556 21-798, limits assumed).
T3 construct: whole, on cells
Briefly: flow cytometry on wild-type K562 cells.
Take B4: the binding result is listed as “no binding”.
Regarding B5, the binding result was “no binding”.
For the molecule B6, the binding result is on record as “no binding”.
Turning to B2, the binding result was “no binding”.
Same read-out and setting: the entry for B3 is “no binding”; for B1 it is “no binding”.

The target of another assay is T1, human αvβ3 integrin on cells. In words: flow cytometry titration on K562-αvβ3 cells.
By Kd is commonly meant the free concentration of one partner at which half of the binding sites on the other are occupied at equilibrium, for simple one-to-one binding. Regarding B8, binding was put at a Kd of 143 nM.

For a further assay, the target named is T4, αvβ5 integrin on transfected K562 cells (UniProt P06756 31-1048; P18084 24-799, limits assumed).
T4 construct: whole, on cells
In words: flow cytometry on K562 cells transfected with αvβ5.
On to B4, for which the binding result is recorded as “no binding”.
B5: the binding result is recorded as “no binding”.
Consider B6, for which the binding result is reported as “no binding”.
On the same count and under the same terms, the entry for B2 is “no binding”; for B3 it is “no binding”.
Consider B1, for which the binding result is on record as “no binding”.

In the next assay the target is T5, αiibβ3 integrin on transfected K562 cells (UniProt P08514 32-1039; P05106 27-788, limits assumed).
T5 construct: whole, on cells
Briefly: flow cytometry on K562 cells transfected with αiibβ3.
In the case of B4, the binding result was “no binding”.
Take B5: the binding result is recorded as “no binding”.
In the case of B6, the binding result was “no binding”.
On to B2, for which the binding result is “no binding”.
As for B3, the binding result is reported as “no binding”.
On to B1, for which the binding result is reported as “no binding”.

In the next assay the target is T6, human VEGFR2 on cells (PAE/KDR cells, HUVEC) (human, UniProt P35968 20-1356).
T6 construct: whole, on cells
Briefly: flow cytometry titration on HUVEC, anti-FLAG detection.
Molecule B4 came in with a Kd of 36 nM.
B5 gave an equilibrium dissociation constant (Kd) of 39 nM.
B6 had a Kd of 53 nM.
B7 had a dissociation constant Kd of 101 nM.

A further assay concerns the target T2, porcine αvβ3 integrin on PAE cells. Briefly: flow cytometry titration on PAE cells, anti-FLAG detection.
Turning to B2, the equilibrium dissociation constant (Kd) came to 26.5 nM.
Molecule B3 displayed a Kd of 26.9 nM.
B1 yielded a Kd of 18.6 nM.

A further assay deals with T7, VEGFR2 on SVR angiosarcoma cells (murine cell line) (murine, UniProt P35918 20-1345).
T7 construct: whole, on cells
T7 sequence (P35918 20-1345): as the sequence (P35918 20-1345, chain 1 of 3) above
Briefly: flow cytometry titration on SVR cells, anti-FLAG detection.
B4 returned a Kd of 13 nM.
In the case of B5, the dissociation constant (Kd) was 3 nM.
Turning to B6, the dissociation constant (Kd) is 8 nM.

A further assay has as its target T6, human VEGFR2 on cells (PAE/KDR cells, …). Briefly: flow cytometry titration on PAE/KDR cells, anti-FLAG detection.
On to B4, for which binding was put at a Kd of 5.7 nM.
B5 yielded a Kd of 6.9 nM.
In turn, B6 yielded a Kd of 6.6 nM.
In turn, B7 yielded a dissociation constant Kd of 17 nM.

A further assay addresses T1, human αvβ3 integrin on cells. Briefly: flow cytometry titration on K562-αvβ3 cells, anti-His detection.
In turn, B2 displayed a dissociation constant Kd of 36 nM.
B3 yielded a Kd of 37 nM.
Molecule B8 came in with a dissociation constant (Kd) of 140 nM.
For B1, the Kd is 34 nM.

The target in a further assay is VEGFR2 and αvβ3 integrin, both expressed on human umbilical vein endothelial cells (HUVEC) (human) (UniProt P35968). Briefly: flow cytometry titration on HUVEC (VEGFR2 and αvβ3 both present), anti-FLAG detection.
The molecule B2 came in with a Kd of 12 nM.
Still for that read-out and setting: the figure for B3 is 45 nM; for B1 it is 6 nM.

The next assay concerns the target T1, human αvβ3 integrin on cells. In words: flow cytometry on U87MG cells (no VEGFR2; receptor not named by the filing).
As to B4, the binding result is reported as “no binding (tested: 1 µM)”.
With B5, the binding result is on record as “no binding (tested: 1 µM)”.
As to B6, the binding result is recorded as “no binding (tested: 1 µM)”.
Take B7: the binding result is recorded as “no binding (tested: 1 µM)”.

Another assay concerns the target VEGFR2 and αvβ3 integrin, both expressed on SVR angiosarcoma cells (murine cell line) (murine) (UniProt P35918). Briefly: flow cytometry titration on SVR cells (VEGFR2 and αvβ3 both present), anti-FLAG detection.
Consider B2, for which the Kd was determined as 18 nM.
Turning to B3, the Kd was 31 nM.
B1 returned a Kd of 37 nM.

Another assay has as its target T8, recombinant human VEGFR2 extracellular domain (human, UniProt P35968 20-764).
T8 construct: extracellular domain; also called KDR; Flk-1
In words: SPR (BIAcore 3000), VEGFR2 amine-coupled to CM5 chip, scVEGF as analyte, 1:1 model. For orientation: SPR reads the build-up and loss of mass on a sensor chip optically.
In general, koff refers to the first-order rate constant of dissociation. Broadly, the kon is a measure of how fast the partners come together. Regarding B4, the dissociation constant (Kd) stood at 2.1 nM, the koff amounted to 0.00049 s⁻¹ and the on-rate constant (kon) was found to be 240000 M⁻¹ s⁻¹.
The like results for B5 were, in that order, 1.6 nM, 0.0003 s⁻¹ and 200000 M⁻¹ s⁻¹.
As for B6, the dissociation constant Kd turned out to be 2.8 nM, the dissociation rate constant (koff) is 0.00061 s⁻¹ and the on-rate constant (kon) is 220000 M⁻¹ s⁻¹.
The like results for B7 were, in that order, 18 nM, 0.00146 s⁻¹ and 83000 M⁻¹ s⁻¹.

The next assay deals with T6, human VEGFR2 on cells (PAE/KDR cells, …). Briefly: flow cytometry titration on HUVEC, optimized conditions of Example 3, anti-FLAG detection.
For the molecule B6, the affinity, expressed as Kd, was 0.4 nM.
In the case of B7, the dissociation constant (Kd) came out at 44 nM.

The target in the next assay is T7, VEGFR2 on SVR angiosarcoma cells …. In words: flow cytometry titration on SVR cells, optimized conditions of Example 3, anti-FLAG detection.
Regarding B6, binding was characterised by a dissociation constant (Kd) of 0.7 nM.
B7 showed a Kd above 40 nM.

In the next assay the target is T6, human VEGFR2 on cells (PAE/KDR cells, …). Briefly: flow cytometry titration on PAE/KDR cells, optimized conditions of Example 3, anti-FLAG detection.
The molecule B4 had a Kd of 0.5 nM.
For the molecule B5, the equilibrium dissociation constant (Kd) is 0.5 nM.
Take B6: the affinity, expressed as Kd, was 0.9 nM.
Take B7: the dissociation constant (Kd) was determined as 55 nM.

A further assay concerns the target T1, human αvβ3 integrin on cells. Briefly: flow cytometry titration on U87MG cells (no VEGFR2; receptor not named by the filing), anti-FLAG detection.
Molecule B2 returned a dissociation constant Kd of 15.6 nM.
B3 came in with a Kd of 29 nM.
The molecule B1 yielded a Kd of 13.9 nM.

A further assay addresses T6, human VEGFR2 on cells (PAE/KDR cells, …). In words: flow cytometry titration on PAE/KDR cells (also carry porcine αvβ3; filing ascribes binding to VEGFR2), anti-FLAG detection.
Take B2: the Kd was 16 nM.
The molecule B3 came in with a Kd of 21 nM.
As to B1, binding was put at a Kd of 20 nM.
